Assay results published in US20040170622A1, “Methods and compositions for modulating XBP-1 activity” (President and Fellows of Harvard College, priority 2002, published 2004).

B1: XBP-N188: XBP-1 deletion mutant consisting of the N terminal 188 amino acids of the spliced form (protein)
chain: MVVVAAAPSAATAAPKVLLLSGQPASGGRALPLMVPGPRAAGSEASGTPQARKRQRLTHLSPEEKALRRKLKNRVAAQTARDRKKARMSELEQQVVDLEEENHKLQLENQLLREKTHGLVVENQELRTRLGMDTLDPDEVPEVEAKGSGVRLVAGSAESAAGAGPVVTSPEHLPMDSDTVASSDSESD
B2: XBP-N136: XBP-1 deletion mutant consisting of the N terminal 136 amino acids of the spliced form (protein, UniProt O35426 1-136, looked up, fragment)
chain: MVVVAAAPSAATAAPKVLLLSGQPASGGRALPLMVPGPRAAGSEASGTPQARKRQRLTHLSPEEKALRRKLKNRVAAQTARDRKKARMSELEQQVVDLEEENHKLQLENQLLREKTHGLVVENQELRTRLGMDTLD
modifications: XBP-1s
notes: XBP-1 deletion mutant consisting of the N terminal 136 amino acids of the spliced form
B3: IL-4: multi-functional cytokine; recombinant IL-4 used at 20 ng/ml (protein, UniProt P05112 25-153, looked up)
Interleukin-4: HKCDITLQEIIKTLNSLTEQKTLCTELTVTDIFAASKNTTEKETFCRAATVLRQFYSHHEKDTRCLGATAQQFHRHKQLIRFLKRLDRNLWGLAGLNSCPVKEANQSTLENFLERLKTIMREKYSKCSS

Key:
XBP-1 mRNA splicing = XBP-1 mRNA splicing and XBP-1s protein in purified murine B cells (RT-PCR, Western blot); format: cell-based; settings: for XBP-1 mRNA splicing (RT-PCR): purified murine B cells, 24-72 h
Description: (§1) Mouse splenocytes or purified B cells (purified mature B cells were isolated from spleen and lymph nodes by magnetic CD43 depletion or B220 magnetic bead selection, Miltenyi Biotech, Auburn Calif.) were plated at 1×10^6 cells/ml in complete media containing RPMI 1640 supplemented with 10% fetal calf serum (FBS)(Hyclone Laboratories), glutamine (2 mM), penicillin (50 units/ml), streptomycin (50 μg/ml), Hepes (100 mM), nonessential amino acids (1×) sodium pyruvate (1 mM) and β-ME (50 μM) and stimulated with anti-CD40(1 μg/ml)(Pharmigen) or LPS (20 μg/ml)(Sigma). Cytokines (R&D Systems, Minneapolis, Minn.) were used at IL-4 (20 ng/ml), IL-2 (20 ng/ml), Il-5 (20 ng/ml), IL-6 (20 ng/ml ), IL-10 (20 ng/ml ) and IL-13 (20 ng/ml). Stimulated B cells were split to a cell concentration of 1×10^6 cells/ml with fresh media every 24 h. The BCL1 (CWS13.20-3B3 ATCC CRL 1699) cell line was cultured in RPMI media supplemented with 10% FBS, gentamicin (20 μg/ml), and β-ME (50 μM). To induce differentiation cells were plated at 2×10^5 cells/ml and treated with recombinant mouse IL-2 and IL-5 (20 ng/ml) (R&D systems).
Total RNA was isolated using TriZo1 (Gibco-BRL) or Qiashedder/Rneasy RNA purification columns (Quiagen). Northern Blots were performed as described (Rengarajan et al., 2000 Immunity. 12:293-300). […] The following probes were used after ^32P-radiolabeling with the ReadyPrime labeling system (Amersham-Pharmacia): XBP-1 (15-830 of the murine coding region), GRP94 and GRP78 (both a kind gift of R. J. Kaufman Univ. of Michigan (Lee et al., 2002)), Blimp (Nco1-Sca1 fragment), c-myc cDNA and Il-6 cDNA . […]
The UPR is induced in cells that detect irregular amounts of unfolded or unassembled protein in the lumen of the ER. […] Total RNAs were prepared at the indicated time point and XBP-1 mRNA levels (a) were determined by Northern blot analysis with γ-actin control (b). […] XBP-1s protein levels were also measured by Western blot analysis (d). […] In panel (C) XBP-1s protein levels were measured by Western blot analysis in the cells stimulated as indicated for 72 hours.

spliced XBP-1 = assay: Inhibition of transactivation function of spliced XBP-1, luciferase in NIH 3T3 cells; format: cell-based; settings: NIH 3T3, 200 ng spliced XBP-1, 200 ng mutant
Description: Versions of XBP-1 with various deletions of the C terminal transcription activating domain (e.g., consisting of the N terminal 225, 188, or 136 amino acids of the spliced form of XBP-1) that expressed high levels of protein by western analysis were created. The proteins were tested for their ability to inhibit the transactivation function of spliced XBP-1. Both the 188 and 136 N terminal mutants were extremely potent inhibitors (effective at a 1:1 ratio) of the spliced XBP-1. NIH 3T3 cells expressing XBP-1uc constructs were transfected with 200 ng of spliced XBP-1, yielding a relative luciferase activity of 44.5. 200 ng of XBP-N188 lowered the luciferase level to 1.8 and 200 ng of XBP-N136 lowered the luciferase activity to 2.2.

XBP-1 mRNA = XBP-1 mRNA induction by cytokines in purified splenic B cells (Northern blot); format: cell-based, mouse
Description: as §1
Total RNA was isolated using TriZo1 (Gibco-BRL) or Qiashedder/Rneasy RNA purification columns (Quiagen). Northern Blots were performed as described (Rengarajan et al., 2000 Immunity. 12:293-300). Briefly, 7-10 μg RNA were electrophoresed on 1.2% agarose, 6% formaldehyde gels transferred onto Genescreen membrane (NEN) and covalently bound to the membrane using UV Stratalinker (Stratagene). The following probes were used after ^32P-radiolabeling with the ReadyPrime labeling system (Amersham-Pharmacia): XBP-1 (15-830 of the murine coding region), GRP94 and GRP78 (both a kind gift of R. J. Kaufman Univ. of Michigan (Lee et al., 2002)), Blimp (Nco1-Sca1 fragment), c-myc cDNA and Il-6 cDNA . […]
Since XBP-1 is required for terminal B cell differentiation, it was important to identify the stimuli that regulate XBP-1 gene expression. A plethora of cytokines (IL-2, IL-4, IL-5, IL-6, IL-10, IL-13) has been implicated in plasma cell differentiation both in vitro and in vivo (reviewed in Calame, K. L. (2001 Nat. Inimunol. 2: 1103-1108; Liu, Y. J., and Banchereau, J. (1997). Sem Immunol 9: 235; Zubler, 1997Sem. Hematol 34:13). It was possible that these cytokines effected terminal B cell differentiation by modulating XBP-1 gene expression. Thus, the ability of these cytokines to upregulate XBP-1 mRNA transcripts in B cells was tested. Purified splenic B cells were cultured for 24 h in the presence or absence of various cytokines and XBP-1 expression determined by Northern blot analysis. […] XBP-1 mRNA levels were determined by Northern blot analysis with γ-actin as control. […] XBP-1 mRNA levels were determined as above. […]

[1] = purified B cells treated with IL-4

| Molecule | XBP-1 mRNA splicing (RT-PCR) (XBP-1 mRNA splicing) | relative luciferase activity (spliced XBP-1) | further results |
| --- | --- | --- | --- |
| lipopolysaccharide [LPS] | an additional band of 145 bp corresponding to the spliced form of XBP-1 mRNA | – | spliced XBP-1 protein production (XBP-1 mRNA splicing; in the absence of other stimuli): competent to produce substantial amounts of spliced XBP-1 protein |
| B1 | – | 1.8 | – |
| B2 | – | 2.2 | – |
| B3 | unable to induce splicing | – | time at which XBP-1 transcript increase is apparent (XBP-1 mRNA; [1]): ≤ 1 h; time of peak of XBP-1 transcripts (XBP-1 mRNA; [1]): around 8 h; XBP-1 transcript induction (XBP-1 mRNA; purified splenic B cells, cytokines 20 ng/ml, 24 h): induced a significant amount of XBP-1 ranscript |
